Measured values published in publication PMC2481239 (Nature structural & molecular biology, 2008).

Columns and labels:
[1] = target: T1, Rpn1 (S. cerevisiae, UniProt P38764 1-993); assay: cross-linking
T1 sequence: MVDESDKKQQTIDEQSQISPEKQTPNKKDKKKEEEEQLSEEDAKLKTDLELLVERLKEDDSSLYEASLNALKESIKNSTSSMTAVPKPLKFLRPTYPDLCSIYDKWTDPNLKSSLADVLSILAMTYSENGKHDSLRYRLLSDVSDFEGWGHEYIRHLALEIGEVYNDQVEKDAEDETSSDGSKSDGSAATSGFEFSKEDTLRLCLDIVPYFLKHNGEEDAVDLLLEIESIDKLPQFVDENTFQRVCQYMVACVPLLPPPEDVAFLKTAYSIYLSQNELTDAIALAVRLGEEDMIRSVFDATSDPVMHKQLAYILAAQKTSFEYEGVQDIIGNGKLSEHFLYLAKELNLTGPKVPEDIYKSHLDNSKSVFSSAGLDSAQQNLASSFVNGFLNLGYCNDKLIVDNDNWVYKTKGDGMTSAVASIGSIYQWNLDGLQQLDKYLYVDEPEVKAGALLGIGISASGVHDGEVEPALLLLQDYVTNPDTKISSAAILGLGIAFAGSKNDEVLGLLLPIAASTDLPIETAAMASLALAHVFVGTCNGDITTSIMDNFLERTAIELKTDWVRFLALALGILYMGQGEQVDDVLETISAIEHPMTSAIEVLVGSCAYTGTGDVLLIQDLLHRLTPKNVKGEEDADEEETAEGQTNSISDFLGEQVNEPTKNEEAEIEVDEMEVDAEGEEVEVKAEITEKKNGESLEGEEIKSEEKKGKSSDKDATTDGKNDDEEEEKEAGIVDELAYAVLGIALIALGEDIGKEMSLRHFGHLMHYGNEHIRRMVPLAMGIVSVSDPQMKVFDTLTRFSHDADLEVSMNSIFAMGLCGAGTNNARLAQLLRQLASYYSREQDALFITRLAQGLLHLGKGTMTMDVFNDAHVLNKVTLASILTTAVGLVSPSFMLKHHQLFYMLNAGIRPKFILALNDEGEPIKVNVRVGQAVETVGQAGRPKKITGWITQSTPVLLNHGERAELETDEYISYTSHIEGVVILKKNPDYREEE

[2] = target: Rpn1-Rpn2 unit (S. cerevisiae, UniProt P38764 1-993; P32565 1-945); assay: atomic force microscopy
[3] = target: T1, Rpn1; assay: atomic force microscopy

| Binder | binding result [1] | stoichiometry N [2] | stoichiometry N [3] |
| --- | --- | --- | --- |
| Rpn2 (natural protein) MSLTTAAPLLALLRENQDSVKTYALESINNVVDQLWSEISNELPDIEALYDDDTFSDREMAALIASKVYYNLGEYESAVKYALAAKDRFDIDEKSQFVETIVSKSIEMYVQEASKQYTKDEQFYTKDIIDPKLTSIFERMIEKCLKASELKLALGIALEGYRLDIIESALKSKLDQDSTSENVKIINYLLTLAITTVTNSKFRSSILRKSFDFLMNMPNCDYLTLNKVVVNLNDAGLALQLFKKLKEENDEGLSAQIAFDLVSSASQQLLEILVTELTAQGYDPALLNILSGLPTCDYYNTFLLNNKNIDIGLLNKSKSSLDGKFSLFHTAVSVANGFMHAGTTDNSFIKANLPWLGKAQNWAKFTATASLGVIHKGNLLEGKKVMAPYLPGSRASSRFIKGGSLYGLGLIYAGFGRDTTDYLKNIIVENSGTSGDEDVDVLLHGASLGIGLAAMGSANIEVYEALKEVLYNDSATSGEAAALGMGLCMLGTGKPEAIHDMFTYSQETQHGNITRGLAVGLALINYGRQELADDLITKMLASDESLLRYGGAFTIALAYAGTGNNSAVKRLLHVAVSDSNDDVRRAAVIALGFVLLRDYTTVPRIVQLLSKSHNAHVRCGTAFALGIACAGKGLQSAIDVLDPLTKDPVDFVRQAAMIALSMILIQQTEKLNPQVADINKNFLSVITNKHQEGLAKFGACVAQGIMNAGGRNVTIQLENADTGTLDTKSVVGLVMFSQFWYWFPLAHFLSLSFTPTTVIGIRGSDQAIPKFQMNCYAKEDAFSYPRMYEEASGKEVEKVATAVLSTTARAKARAKKTKKEKGPNEEEKKKEHEEKEKERETNKKGIKETKENDEEFYKNKYSSKPYKVDNMTRILPQQSRYISFIKDDRFVPVRKFKGNNGVVVLRDREPKEPVALIETVRQMKDVNAPLPTPFKVDDNVDFPSA | binds |  |  |
| Rad23 (natural protein) MVSLTFKNFKKEKVPLDLEPSNTILETKTKLAQSISCEESQIKLIYSGKVLQDSKTVSECGLKDGDQVVFMVSQKKSTKTKVTEPPIAPESATTPGRENSTEASPSTDASAAPAATAPEGSQPQEEQTATTERTESASTPGFVVGTERNETIERIMEMGYQREEVERALRAAFNNPDRAVEYLLMGIPENLRQPEPQQQTAAAAEQPSTAATTAEQPAEDDLFAQAAQGGNASSGALGTTGGATDAAQGGPPGSIGLTVEDLLSLRQVVSGNPEALAPLLENISARYPQLREHIMANPEVFVSMLLEAVGDNMQDVMEGADDMVEGEDIEVTGEAAAAGLGQGEGEGSFQVDYTPEDDQAISRLCELGFERDLVIQVYFACDKNEEAAANILFSDHAD |  | 1 | 1 |
